In experiment [1] the target is H77 NS5A 38A (hepatitis C virus genotype 1a (H77 strain)). As to the kind of experiment: two-hybrid; Checkmate mammalian two-hybrid: GAL4/BD fusion (pBIND) and VP16/AD fusion (pACT) with the pGL4.3[luc2P/Gal4UAS/Hygro] reporter co-transfected into FT3-7 (Huh-7) cells; lysed at 48 h; F-Luc/R-Luc ratio; for NS5A both fusions carry the same NS5A.
Experiment [2] addresses YFP-fused JFH1 NS5A 148A of HJ3-5/NS5A^YFP (hepatitis C virus genotype 2a (JFH1 strain)). As to the kind of experiment: co-IP; GFP immunoprecipitation (anti-GFP magnetic beads, 1 h, 4 C) of NS5A^YFP from lysates (0.5% Triton X-100, 10 mM Tris-HCl pH 7.5, 150 mM NaCl) of cells electroporated with HJ3-5/NS5A^YFP RNA; core detected by western blot; ratio of co-IP core per IP NS5A^YFP. In general terms: In western blotting, separated proteins are transferred to a membrane and probed.

For experiment [3], the target named is YFP-fused JFH1 NS5A 37A of HJ3-5/NS5A^YFP (hepatitis C virus genotype 2a (JFH1 strain)). The description is as above.
Experiment [4] addresses YFP-fused JFH1 NS5A 38A of HJ3-5/NS5A^YFP (hepatitis C virus genotype 2a (JFH1 strain)). The experiment is described as above.
The target in experiment [5] is JFH1 NS5A 36A (hepatitis C virus genotype 2a (JFH1 strain)). The experiment can be described thus: two-hybrid; Checkmate mammalian two-hybrid: GAL4/BD fusion (pBIND) and VP16/AD fusion (pACT) with the pGL4.3[luc2P/Gal4UAS/Hygro] reporter co-transfected into FT3-7 (Huh-7) cells; lysed at 48 h; F-Luc/R-Luc ratio; for NS5A both fusions carry the same NS5A.
In experiment [6] the target is H77 NS5A 36A/37A/38A (mutation group a). As to the kind of experiment: checkmate mammalian two-hybrid assay. As to conditions: Huh-7 cells; GAL4/BD-fused and VP16/AD-fused NS5A both carry the mutations; parent: est. 100; read off a plot.
For experiment [7], the target named is H77 NS5A 36A/37A/38A/112A/148A (both mutation groups). The experiment can be described thus: checkmate mammalian two-hybrid assay. Conditions: Huh-7 cells; GAL4/BD-fused and VP16/AD-fused NS5A both carry the mutations; parent: est. 100; read off a plot.
For the next experiment, the target named is H77 NS5A 37A. As to the kind of experiment: mammalian two-hybrid assay. Conditions: Huh-7 cells; GAL4/BD-fused and VP16/AD-fused NS5A both carry the mutation; parent: est. 100; read off a plot.
A further experiment deals with H77 NS5A 38A. The experiment can be described thus: mammalian two-hybrid assay. As to conditions: Huh-7 cells; GAL4/BD-fused and VP16/AD-fused NS5A both carry the mutation; parent: est. 100; read off a plot.
In another experiment the target is H77 NS5A 112A (UniProt P27958). The experiment can be described thus: mammalian two-hybrid assay. As to conditions: Huh-7 cells; GAL4/BD-fused and VP16/AD-fused NS5A both carry the mutation; parent: est. 100; read off a plot.
The target of experiment [8] is H77 NS5A 112A/148A (mutation group b). The experiment can be described thus: checkmate mammalian two-hybrid assay. As to conditions: Huh-7 cells; GAL4/BD-fused and VP16/AD-fused NS5A both carry the mutations; parent: est. 100; read off a plot.
The target in another experiment is H77 NS5A 148A. The experiment can be described thus: mammalian two-hybrid assay. As to conditions: Huh-7 cells; GAL4/BD-fused and VP16/AD-fused NS5A both carry the mutation; parent: est. 100; read off a plot.
For the next experiment, the target named is JFH1 NS5A 36A. The experiment can be described thus: checkmate mammalian two-hybrid assay. Conditions: Huh-7 cells; GAL4/BD-fused and VP16/AD-fused NS5A both carry the mutation; parent: est. 100; read off a plot.
Experiment [9] has as its target JFH1 NS5A 36A/37A/38A (mutation group a). The experiment can be described thus: checkmate mammalian two-hybrid assay. As to conditions: Huh-7 cells; GAL4/BD-fused and VP16/AD-fused NS5A both carry the mutations; parent: est. 100; read off a plot.
Experiment [10] addresses JFH1 NS5A 36A/37A/38A/112A/148A (both mutation groups combined). As to the kind of experiment: checkmate mammalian two-hybrid assay. As to conditions: Huh-7 cells; GAL4/BD-fused and VP16/AD-fused NS5A both carry the mutations; parent: est. 100; read off a plot.
In another experiment the target is JFH1 NS5A 37A. As to the kind of experiment: checkmate mammalian two-hybrid assay. As to conditions: Huh-7 cells; GAL4/BD-fused and VP16/AD-fused NS5A both carry the mutation; parent: est. 100; read off a plot.
The next experiment addresses JFH1 NS5A 38A. As to the kind of experiment: checkmate mammalian two-hybrid assay. Conditions: Huh-7 cells; GAL4/BD-fused and VP16/AD-fused NS5A both carry the mutation; parent: est. 100; read off a plot.
The next experiment deals with JFH1 NS5A 112A (UniProt Q99IB8). The experiment can be described thus: checkmate mammalian two-hybrid assay. Conditions: Huh-7 cells; GAL4/BD-fused and VP16/AD-fused NS5A both carry the mutation; parent: est. 100; read off a plot.
Experiment [11] deals with JFH1 NS5A 112A/148A (mutation group b). The experiment can be described thus: checkmate mammalian two-hybrid assay. As to conditions: Huh-7 cells; GAL4/BD-fused and VP16/AD-fused NS5A both carry the mutations; parent: est. 100; read off a plot.

On to H77 NS5A 38A (natural protein), for which the percent above wt NS5A self-interaction (F-Luc/R-Luc) in experiment [1] came out at 30 % above wt.
Consider “HCV core protein (H77 core of the chimera HJ3-5) (natural protein)”, for which the NS5A and core co-IP efficiency against wt (% lower than wt) in experiment [2], in experiment [3] and in experiment [4] was 50 throughout.
Regarding JFH1 NS5A 36A (natural protein), the percent of wt NS5A self-interaction (F-Luc/R-Luc) in [5] was 20 % of wt.
As for “wild-type full-length NS5A of gt1a HCV H77 (from UniProt P27958) 36A; 37A; 38A”, the percent of parent in experiment [6] stood at 17 % wt.
Take “wild-type full-length NS5A of gt1a HCV H77 (from UniProt P27958) 36A; 37A; 38A; 112A; 148A”: the percent of parent in [7] is 3.3 % wt.
As to “wild-type full-length NS5A of gt1a HCV H77 (from UniProt P27958) 37A”, the percent of parent in the experiment with H77 NS5A 37A turned out to be 45 % wt.
In the case of “wild-type full-length NS5A of gt1a HCV H77 (from UniProt P27958) 38A”, the percent of parent in the experiment with H77 NS5A 38A was determined as 130 % wt.
On to “wild-type full-length NS5A of gt1a HCV H77 (from UniProt P27958) 112A”, for which the percent of parent in the experiment with H77 NS5A 112A stood at 27 % wt.
Regarding “wild-type full-length NS5A of gt1a HCV H77 (from UniProt P27958) 112A; 148A”, the percent of parent in [8] worked out at 11 % wt.
With “wild-type full-length NS5A of gt1a HCV H77 (from UniProt P27958) 148A”, the percent of parent in the experiment with H77 NS5A 148A was found to be 13 % wt.
As for “wild-type full-length NS5A of gt2a HCV JFH1 (from UniProt Q99IB8) 36A”, the percent of parent with JFH1 NS5A 36A amounted to 22 % wt.
For “wild-type full-length NS5A of gt2a HCV JFH1 (from UniProt Q99IB8) 36A; 37A; 38A”, the percent of parent in [9] turned out to be 11 % wt.
Regarding “wild-type full-length NS5A of gt2a HCV JFH1 (from UniProt Q99IB8) 36A; 37A; 38A; 112A; 148A”, the percent of parent in experiment [10] was 2.5 % wt.
Turning to “wild-type full-length NS5A of gt2a HCV JFH1 (from UniProt Q99IB8) 37A”, in the experiment with JFH1 NS5A 37A, the percent of parent amounted to 78 % wt.
As for “wild-type full-length NS5A of gt2a HCV JFH1 (from UniProt Q99IB8) 38A”, the percent of parent with JFH1 NS5A 38A amounted to 77 % wt.
In the case of “wild-type full-length NS5A of gt2a HCV JFH1 (from UniProt Q99IB8) 112A”, the percent of parent with JFH1 NS5A 112A came to 110 % wt.
As to “wild-type full-length NS5A of gt2a HCV JFH1 (from UniProt Q99IB8) 112A; 148A”, the percent of parent in experiment [11] was determined as 2.7 % wt.

The values above are taken from publication PMC6072203.
